# Reference: patent US20220000762A1, “COMPOSITIONS FOR TREATING OXIDATIVE STRESS-ASSOCIATED SKIN DISEASES AND SKIN AGEING AND DIAGNOSIS OF OXIDATIVE STRESS-ASSOCIATED SKIN DISEASES” (priority 2019, published 2022)
# B1: RoxP: radical oxygenase of Propionibacterium acnes, secreted antioxidant protein of C. acnes; SEQ ID NO: 1 for strain KPA171202 (protein)
# chain: MFVQIAASLAAASSIALGIPGAATPIDESQLPVGPQVSVTDSAQHTGPFAASSPLTITVKPGAPCVRADGYQESMVTRVLDDKGHQVWTGTFDESKLIGGTGLGTATFHVGSPAAAFNFHGSERTTYRTLSYCAYPHYVNGTRERLSQVSVKTFMVDPALN
# modifications: Cutibacterium acnes
# What was measured:
# [1] = ABTS radical cation assay; assay type: biochemical
# Protocol: FIG. 4: RoxP antioxidant activity under adverse conditions. The ability of RoxP to reduce ABTS radical cations, denoted by a decrease in absorbance at 734 nm, was tested in multiple settings. Different concentrations of recombinant RoxP (rRoxP) (0.2-3.2 μM) in sodium phosphate buffer (20 mM, pH 7.4) (A), rRoxP (2.7 μM) incubated with salt solutions (B), pre-heated rRoxP (2.7 μM) incubated for 20 min in temperatures ranging from RT to 98° C. and allowed to cool down to ambient temperature prior to activity measurements (C), or rRoxP (2 μM) stored at room temperature for up to 2 weeks (D) were added to a solution of pre-formed ABTS radicals and the absorbance recorded after 30 sec.
# The reduction of pre-formed ABTS radical cations in the presence of RoxP was analysed using a spectrophotometric assay previously described by Re et al. (1999 Free Radic Biol Med 26:1231-1237). 2,2′-azinobis(3-ethylbenzothiazoline-6-sulfonic acid) diammonium salt (ABTS) (Sigma-Aldrich) was initially dissolved in ddH2O to a concentration of […]. Potassium persulfate (Merck KGaA, Darmstadt, Germany) was subsequently added to a final concentration of 2.45 mM and the resulting solution kept dark and incubated overnight at RT. Formed ABTS radicals were diluted with PBS (pH 7.4) until reaching an absorbance of approximately 0.7 at 734 nm. Antioxidants (1.7 μM) were added (1:9 v/v) and the absorbance spectrum 500 to 900 nm recorded after 30 sec.
# [2] = Lipid hydroperoxide assay in UV irradiated and non-irradiated plasma; assay type: biochemical; conditions: 300 μg RoxP in 500 μl blood, plasma both irradiated (UVA/UVB) and non-irradiated
# Protocol: Hydroperoxides react with Fe^2+ ions to produce Fe^3+ ions which are detected using thiocyanate ion as chromogen. Lower abundance of Fe^3+ ions results in lowered absorbance, indicating lower level of lipid hydroperoxides in irradiated plasma.
# Blood was collected in EDTA tubes. Samples containing 500 μl blood+150 μl RoxP (300 μg RoxP), or 500 μl blood+150 μl PBS, were subjected to irradiation:
# UVA—irradiation 3×5000 μJ/cm^2; tubes were rotated between irradiation steps; or
# Controls having composition identical to the samples, but not irradiated, were included in the experiment.
# The blood samples were centrifuged at 1000×g, plasma was collected and frozen at −80° C.
# Lipid hydroperoxides were quantified using lipid hydroperoxide assay kit (Cayman Chemical, item no. Item No. 705002).
# [3] = test system: healthy subjects; test: UVA/UVB-irradiation study in human subjects: skin color a* (erythema) by Chromameter; assay type: in vivo; conditions: topical, 1.25 MED UV, n=7
# Protocol: The objective of this study was to assess the UV-protection potential of three compositions containing RoxP in 7 healthy subjects by measuring the antioxidative effect and skin erythema. Oxidative stress was induced by exposition to UVA- and UVB-light to the skin on the upper back. The anti-oxidative activity of the test products was evaluated by measurement of sebum lipid oxidization levels (concentration of squalene monohydroperoxide) of swab-samples from the skin surface. The potential was assessed after two applications of RoxP in comparison to water, an untreated control and one hydrophilic standard antioxidant (H1) after induction of a light sunburn (1.25 MED). […] Additionally, the UV-protection potential of the products was evaluated by measuring the produced erythema (Chromameter). […]
# Erythema was evaluated (Chromameter) at t1=baseline before irradiation, t2=30 to 50 minutes after irradiation, and t3=16 to 24 hours after irradiation. Squalene monohydroperoxide (SQOOH) was quantified at 25 to 45 minutes after irradiation. […]
# On Day 2, subjects returned to the Study Site 20±4 hours after irradiation. […] The reading of the MED was performed and the irradiation time for 1 MED was determined. The correct dose for the irradiation of test areas was calculated by multiplying the irradiation dose of 1 MED with the factor for irradiation (1.25). […]
# [4] = Phenantroline assay; assay type: biochemical; conditions: 10 μg or 20 μg RoxP
# Protocol: Phenantroline chelates specifically Fe^2+ and generates absorbance at 550 nm.
# A reaction mixture containing 0.7 mM ammonium iron (II) sulfate hexahydrate (from 1.4 mM working solution in PBS) or 0.5 mM ammonium iron (III) sulfate dodecahydrate (from 1.0 mM working solution in PBS); and further containing 10 μg or 20 μg RoxP (from 2 mg/ml RoxP working solution in PBS) or equivalent volume of PBS as control; and further containing 0.75 mM phenatroline (from 5 mM working solution in PBS); total volume 200 μl; was incubated for 15 minutes at room temperature. Absorbance was read at 550 nm.
molecule,measurement,setting,value
B1,reduction of ABTS radical when FMN/FDN was added,"[1]; RoxP 2 mg/ml 10 μl, FMN/FDN 1 mM 1 μl or 3 μl, especially FDN",increased reduction
same,activity after long-term storage at room temperature,[1]; rRoxP 2 μM stored at room temperature for up to 2 weeks,able to endure
same,antioxidant activity in presence of CaCl2,[1]; rRoxP 2.7 μM incubated with salt solutions,loss of activity
same,temperature endured without any significant loss of activity,"[1]; rRoxP 2.7 μM pre-heated 20 min, RT to 98° C., cooled before measurement",above 70 °C
same,antioxidant activity in presence of NaCl,"[1]; rRoxP 2.7 μM, physiological concentrations of NaCl",withstood
same,reducing activity on ABTS radical cations,"[1]; rRoxP 0.2-3.2 μM, sodium phosphate buffer 20 mM pH 7.4",concentration-dependent reducing activity
same,lipid hydroperoxide levels,[2],reduced
same,increase of skin color a* (median),"[3]; during 24 hours, water control 6 units",3.4 units
same,erythema 30-50 min after UV irradiation,[3],less erythrema than the water control
same,reduction of Fe^3+ to Fe^2+ (absorbance at 550 nm),"[4]; 0.5 mM ammonium iron (III) sulfate, 15 minutes",reduced Fe^3+ to Fe^2+
same,effect on reaction when only Fe^2+ was present,[4]; 0.7 mM ammonium iron (II) sulfate,did not affect
